According to PMC11889887, “Blockade of αvβ6 and αvβ8 integrins with a chromogranin A-derived peptide inhibits TGFβ activation in tumors and suppresses tumor growth” (Journal of Experimental & Clinical Cancer Research : CR, 2025):
Bridge positions count the residues as written; N and C are the ends. Square brackets hold non-standard residues; d marks the D form. Ends that are not written are not given here. Lys(N3) = [N-]=[N+]=NCCCC[C@H](N)C(=O)O; Pra = C#CC[C@H](N)C(=O)O

Tests used:
[1] = biological target: T1, biotinylated recombinant human αvβ6 integrin (human, UniProt P06756 31-1048; P18564 22-709, biotinylated (which chain is not stated) | biotinylated (which chain is not stated)); test: ELISA; competitive integrin binding assay (taken as Assay 3): plates coated with human latent TGFβ1; various amounts of peptide 5a or 5a-HSA with 10 ng/ml biotinylated αvβ6 or αvβ8 in 20 mM Tris-HCl pH 7.4, 150 mM sodium chloride, 1 mM manganese chloride, 0.05% Tween-20, 0.5% BSA, 1 h; HRP-labeled streptavidin; details: both partners purified
T1 construct: integrin alpha-V, human, recombinant; integrin beta-6, human, recombinant; Detected by HRP-labeled streptavidin through the biotin; also called biotinylated-αvβ6; source: bought: Acros CROBiosystems (cat. IT6-H82E4)

[2] = biological target: T2, biotinylated recombinant human αvβ8 integrin (human, UniProt P06756 31-1048; P26012 43-684, biotinylated (which chain is not stated) | biotinylated (which chain is not stated)); test: as above; details: both partners purified
T2 construct: integrin alpha-V, human, recombinant; integrin beta-8, human, recombinant; Detected by HRP-labeled streptavidin through the biotin; also called biotinylated-αvβ8; source: bought: Acros CROBiosystems (cat. IT8-H82W5)

Q: For CFETLRGDLRILSILR[Pra]QNL[Lys(N3)]KELQD-NH2 (triazole 17-21) [peptide 5a], which Ki [1] is on record?
A: The Ki was 1.7 nM.

Q: And the Ki [2]?
A: The Ki was 3.9 nM.
